The target of this experiment is human IgG Fc (Biotin-SP-ChromPure Human IgG, Fc fragment) (human, biotin (Biotin-SP)). The experiment is described as follows: SPR. The note with it: both partners purified.

Kd data for 1 molecule are collected here from publication PMC10977726 (PLOS ONE, 2024).

Broadly, the Kd is the concentration at which binding is half-saturated.

ENLYFQGECKGKGAKCSSISIHDAHCCTGSCRSGKC (designed binder) [His(6)-SUMO-TEV-Ig-CON-5 fusion protein] yielded a Kd of 22.2 nM.
